Experiment [1] concerns the target wildtype feline IL-31 (Feline_IL31_wildtype) (feline). Briefly: SPR (Biacore), immobilised IL-31, 1:1 fit. A general note: Surface plasmon resonance follows binding to a sensor surface in real time, without labels.
Experiment [2] shares this target.
Experiment [3] has as its target canine IL-31 (Canine_IL31) (canine). The experiment can be described thus: SPR (Biacore), immobilised IL-31, 1:1 fit.

Numbering of substitutions follows the chain as printed. Names may count otherwise.

canine IL-31 (Canine_IL31) (canine), sequence (chain, as listed by the source limits assumed, form in doubt): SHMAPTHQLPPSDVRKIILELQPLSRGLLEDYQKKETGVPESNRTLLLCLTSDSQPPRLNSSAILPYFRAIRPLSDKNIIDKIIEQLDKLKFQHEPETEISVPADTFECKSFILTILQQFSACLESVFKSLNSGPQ
wildtype feline IL-31 (Feline_IL31_wildtype) (feline), sequence (chain, as listed by the source limits assumed, form in doubt): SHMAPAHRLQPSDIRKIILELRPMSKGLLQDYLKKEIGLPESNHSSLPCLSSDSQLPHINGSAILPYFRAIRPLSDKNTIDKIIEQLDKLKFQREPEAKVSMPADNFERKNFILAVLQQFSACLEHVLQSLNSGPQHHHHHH

B1: ZTS-927 (antibody)
heavy: QVLLVQSGAEVRTPGASVKIFCKASGYSFTSYTIHWLRQAPAQGLEWMGNINPTSGYTENNQRFKDRLTLTADTSTNTAYMELSSLRSADTAMYYCARWGFKYDGEWSFDVWGAGTTVTVSSASTTAPSVFPLAPSCGTTSGATVALACLVLGYFPEPVTVSWNSGALTSGVHTFPAVLQASGLYSLSSMVTVPSSRWLSDTFTCNVAHPPSNTKVDKTVRKTDHPPGPKPCDCPKCPPPEMLGGPSIFIFPPKPKDTLSISRTPEVTCLVVDLGPDDSDVQITWFVDNTQVYTAKTSPREEQFNSTYRVVSVLPILHQDWLKGKEFKCKVNSKSLPSPIERTISKAKGQPHEPQVYVLPPAQEELSRNKVSVTCLIKSFHPPDIAVEWEITGQPEPENNYRTTPPQLDSDGTYFVYSKLSVDRSHWQRGNTYTCSVSHEALHSHHTQKSLTQSPGK
light: EIQMTQSPSSLSASPGDRVTITCRASQGISIWLSWYQQKPGNIPKVLINKASNLHIGVPSRFSGSGSGTDFTLTISSLEPEDAATYYCLQSQTYPLTFGGGTKLEIKRSDAQPSVFLFQPSLDELHTGSASIVCILNDFYPKEVNVKWKVDGVVQNKGIQESTTEQNSKDSTYSLSSTLTMSSTEYQSHEKFSCEVTHKSLASTLVKSFQRSECQRE
A word on the Kd: it is the free concentration of one partner at which half of the binding sites on the other are occupied at equilibrium, for simple one-to-one binding. A lower Kd goes with higher affinity. One may read the koff as the rate constant with which the complex falls apart. Low readings indicate slow dissociation, high ones fast dissociation. Broadly, the kon is a measure of how fast the partners come together. A low value points to slower complex formation. In experiment [1], B1 yielded a Kd of 0.614 nM, a koff of 2.3e-05 s⁻¹ and a kon of 37400 M⁻¹ s⁻¹. Further, in experiment [2], the IC50, inhibition of feline IL-31-induced STAT3 phosphorylation, canine DH82 cells came out at 1.57 µg/mL and the IC50, inhibition of feline IL-31-induced STAT3 phosphorylation, feline FCWF4 cells came to 5.26 µg/mL.

B2: Feline 11E12 1.2 (antibody, V domains shown)
VH: QVLLVQSGAEVKKPGASVKIFCKASGYSFTYYDINWLRQAPEQGLEWMGWIFPGDGGTKYNETFKGRLTLTADTSTNTVYMELSSLRSADTAMYYCARGGTSVIRDAMDYWGQGALVTVSS
VL: EVVLTQSSAFLSRTLKEKATITCRASESVDNYGISFMHWYQQKPNQAPKLLVKRASNLESGAPSRFSGSGSGTDFTLTISSPEPEDAATYYCQQSNKDPLTFGQGT
As to B2, in experiment [2], the IC50, inhibition of feline IL-31-induced STAT3 phosphorylation, canine DH82 cells was over 100 µg/mL and the IC50, inhibition of feline IL-31-induced STAT3 phosphorylation, feline FCWF4 cells was over 100 µg/mL.

B3: Feline 11E12 1.1 FW2 (antibody, V domains shown)
VH: B2 VH
VL: EIQMTQSPSSLSASPGDRVTITCRASESVDNYGISFMHWYQQKPGQPPKLLIYRASNLESGVPSRFSGSGSGTDFTLTISSLEPEDAATYYCQQSNKDPLTFGQGT
In experiment [3], B3 displayed a Kd of 7.02 nM, a koff of 0.000318 s⁻¹ and a kon of 45200 M⁻¹ s⁻¹. In experiment [1], this molecule registered a Kd of 0.75 nM, a koff of 0.000639 s⁻¹ and a kon of 852000 M⁻¹ s⁻¹. Also, in experiment [2], the IC50, inhibition of feline IL-31-induced STAT3 phosphorylation, canine DH82 cells came out at 5.66 µg/mL and the IC50, inhibition of feline IL-31-induced STAT3 phosphorylation, feline FCWF4 cells stood at 4.38 µg/mL.

B4: Feline 11E12 1.1 K46Q (antibody, V domains shown)
VH: B2 VH
VL: B3 VL with P47V
For B4, in experiment [3], the Kd stood at 1.91 nM, the koff was 8.85e-05 s⁻¹ and the kon came to 46400 M⁻¹ s⁻¹. In experiment [1], this molecule returned a Kd of 12.6 nM, a koff of 0.000145 s⁻¹ and a kon of 11500 M⁻¹ s⁻¹.

B5: mouse: feline 11E12 chimera (antibody)
heavy: QVQLQQSGAELVKPGASVKLSCKASGYTFKYYDINWVRQRPEQGLEWIGWIFPGDGGTKYNETFKGKATLTTDKSSSTAYMQLSRLTSEDSAVYFCARGGTSVIRDAMDYWGQGTSVTVSSASTTAPSVFPLAPSCGTTSGATVALACLVLGYFPEPVTVSWNSGALTSGVHTFPAVLQASGLYSLSSMVTVPSSRWLSDTFTCNVAHPPSNTKVDKTVRKTDHPPGPKPCDCPKCPPPEAAGAPSIFIFPPKPKDTLSISRTPEVTCLVVDLGPDDSDVQITWFVDNTQVYTAKTSPREEQFNSTYRVVSVLPILHQDWLKGKEFKCKVNSKSLPSPIERTISKAKGQPHEPQVYVLPPAQEELSRNKVSVTCLIKSFHPPDIAVEWEITGQPEPENNYRTTPPQLDSDGTYFVYSKLSVDRSHWQRGNTYTCSVSHEALHSHHTQKSLTQSPGK
light: DIVLTQSPASLAVSLGQRATISCRASESVDNYGISFMHWYQQKPGQPPKLLIYRASNLESGIPARFSGSGSRTDFTLTINPVETDDVATYYCQQSNKDPLTFGAGTKLELKRSDAQPSVFLFQPSLDELHTGSASIVCILNDFYPKEVNVKWKVDGVVQNKGIQESTTEQNSKDSTYSLSSTLTMSSTEYQSHEKFSCEVTHKSLASTLVKSFQRSECQRE
In experiment [3], B5 had a Kd of 0.000127 nM, a koff of 8.7e-08 s⁻¹ and a kon of 684000 M⁻¹ s⁻¹. In experiment [1], this molecule displayed an equilibrium dissociation constant (Kd) of 0.13 nM, a koff of 5.06e-05 s⁻¹ and an on-rate constant (kon) of 388000 M⁻¹ s⁻¹. In addition, in experiment [2], the IC50, inhibition of feline IL-31-induced STAT3 phosphorylation, canine DH82 cells is 4.4 µg/mL and the IC50, inhibition of feline IL-31-induced STAT3 phosphorylation, feline FCWF4 cells came out at 3.45 µg/mL.

B6: Feline 15H05 1.1 FW2_3 (antibody, V domains shown)
VH: QVLLVQSGAEVRTPGASVKIFCKASGYSFTSYTIHWLRQAPAQGLEWMGNINPTSGYTENNQRFKDRLTLTADTSTNTAYMELSSLRSADTAMYYCARWGFKYDGEWSFDVWGAGTTVTVSS
VL: EIQMTQSPSSLSASPGDRVTITCRASQGISIWLSWYQQKPGNIPKVLINKASNLHIGVPPRFSGSGSGTHFTLTITSLQPEDIATYYCLQSQTYPLTFGGGTKLEIK
B6: in experiment [3], the Kd is 214 nM, the koff was 0.00193 s⁻¹ and the kon was found to be 9050 M⁻¹ s⁻¹. Further, in experiment [1], the Kd came to 123 nM, the koff was 0.00116 s⁻¹ and the kon came to 9490 M⁻¹ s⁻¹.

B7: Feline 15H05 3.1 (antibody, V domains shown)
VH: B6 VH with T13K, A42E
VL: B6 VL with N42K, I43V, V46L, N49Y, P60S, H70D, T76S, Q79E, I83A
In the case of B7, in experiment [3], the Kd was 0.795 nM, the koff was found to be 2.11e-05 s⁻¹ and the kon came out at 26500 M⁻¹ s⁻¹. In addition, in experiment [1], the Kd came to 37.1 nM, the dissociation rate constant (koff) worked out at 0.00166 s⁻¹ and the kon amounted to 44700 M⁻¹ s⁻¹.

B8: Feline 15H05 1.1 (antibody, V domains shown)
VH: B6 VH
VL: B6 VL with N42K, I43V, V46L, N49Y, P60S, H70D, T76S, Q79E, I83A
In experiment [3], B8 returned a dissociation constant (Kd) of 0.00504 nM, a koff of 1.36e-07 s⁻¹ and a kon of 27000 M⁻¹ s⁻¹. In addition, in experiment [1], the Kd was 13.5 nM, the koff stood at 0.00131 s⁻¹ and the kon turned out to be 97100 M⁻¹ s⁻¹.

B9: Feline 15H05 3.2 (antibody, V domains shown)
VH: B6 VH with T13K, A42E
VL: EITMTQSPGSLAGSPGQQVTMNCRASQGISIWLSWYQQKPGQHPKLLIYKASNLHIGVPDRFSGSGSGTDFTLTISNLQAEDVASYYCLQSQTYPLTFGGGTKLEIK
In experiment [3], B9 showed a Kd of 0.204 nM, a koff of 6.04e-06 s⁻¹ and a kon of 29700 M⁻¹ s⁻¹. In experiment [1], this molecule registered a Kd of 12.6 nM, a koff of 0.00166 s⁻¹ and a kon of 132000 M⁻¹ s⁻¹.

B10: Feline 15H05 1.3 (antibody, V domains shown)
VH: B6 VH
VL: EVVLTQSSAFLSRTLKEKATITCRASQGISIWLSWYQQKPNQAPKLLVKKASNLHIGAPSRFSGSGSGTDFTLTISSPEPEDAATYYCLQSQTYPLTFGGGTKLGDQ
In experiment [3], B10 showed a Kd of 6.38 nM, a koff of 0.00019 s⁻¹ and a kon of 29700 M⁻¹ s⁻¹. Moreover, in experiment [1], the Kd came to 86.4 nM, the koff was determined as 0.00328 s⁻¹ and the kon amounted to 38000 M⁻¹ s⁻¹.

B11: Feline 15H05 2.2 (antibody, V domains shown)
VH: B6 VH with S28G, L37V, A40S
VL: B9 VL
In experiment [3], B11 registered a Kd of 0.393 nM, a koff of 1.09e-05 s⁻¹ and a kon of 27700 M⁻¹ s⁻¹. Besides, in experiment [1], the Kd was found to be 2.15 nM, the koff worked out at 0.00195 s⁻¹ and the kon is 905000 M⁻¹ s⁻¹.

B12: Feline 15H05 2.1 (antibody, V domains shown)
VH: B6 VH with S28G, L37V, A40S
VL: B6 VL with N42K, I43V, V46L, N49Y, P60S, H70D, T76S, Q79E, I83A
In experiment [3], B12 displayed a Kd of 1.65 nM, a koff of 0.000866 s⁻¹ and a kon of 525000 M⁻¹ s⁻¹. In experiment [1], this molecule came in with a Kd of 22.3 nM, a koff of 0.00465 s⁻¹ and a kon of 208000 M⁻¹ s⁻¹.

B13: Feline 15H05 1.1 FW1_3 (antibody, V domains shown)
VH: B6 VH
VL: B6 VL with E1D, T5N, P15L, R18T, V19I, I21V, N42K, I43V, V46L, N49Y
In experiment [3], B13 gave a Kd of 0.00436 nM, a koff of 2.88e-08 s⁻¹ and a kon of 6590 M⁻¹ s⁻¹. In experiment [1], the Kd was determined as 0.0674 nM, the dissociation rate constant (koff) was determined as 3.02e-05 s⁻¹ and the kon was determined as 448000 M⁻¹ s⁻¹.

B14: Feline 15H05 1.2 (antibody, V domains shown)
VH: B6 VH
VL: B9 VL
B14: in experiment [3], the Kd is 3.48 nM, the koff was 0.000115 s⁻¹ and the kon came to 33000 M⁻¹ s⁻¹. In experiment [1], this molecule displayed a Kd of 104 nM, a koff of 0.00147 s⁻¹ and an on-rate constant (kon) of 14100 M⁻¹ s⁻¹.

Values taken from patent publication US20190282704A1.
